Reference: publication PMC8626073

Biological target: T1, NlFMD-F (female-specific isoform, SR-rich protein) (Nilaparvata lugens, UniProt A0A974LNP1 1-613)
T1 sequence: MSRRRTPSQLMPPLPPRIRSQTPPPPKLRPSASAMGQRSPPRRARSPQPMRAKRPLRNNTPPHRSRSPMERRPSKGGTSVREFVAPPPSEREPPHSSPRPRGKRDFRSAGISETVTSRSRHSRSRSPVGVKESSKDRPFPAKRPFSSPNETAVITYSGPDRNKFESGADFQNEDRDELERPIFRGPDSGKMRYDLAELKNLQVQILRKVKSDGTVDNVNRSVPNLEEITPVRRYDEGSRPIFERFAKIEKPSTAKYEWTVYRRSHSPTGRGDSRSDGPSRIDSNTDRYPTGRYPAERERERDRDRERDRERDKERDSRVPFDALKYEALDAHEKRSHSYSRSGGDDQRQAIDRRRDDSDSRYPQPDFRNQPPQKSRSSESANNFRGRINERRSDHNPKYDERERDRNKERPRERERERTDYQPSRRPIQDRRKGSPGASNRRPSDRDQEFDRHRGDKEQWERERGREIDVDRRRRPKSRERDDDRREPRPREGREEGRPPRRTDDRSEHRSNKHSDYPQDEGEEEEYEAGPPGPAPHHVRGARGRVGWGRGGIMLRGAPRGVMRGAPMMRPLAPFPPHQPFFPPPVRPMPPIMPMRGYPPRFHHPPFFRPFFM
Assay: MST

B1: GAAGAAGAA repeat (RAAGAA motif) (ssRNA)
RNA: GAAGAAGAA
Question: Does B1 bind?
Answer: Result: no binding
